Drawing on article PMC5727297, this text covers percent of apo-SOD1^SH still free with 1 equivalent of CCS-D2 for 1 substance.

For the assay, the target named is WT SOD1, purified from E. coli (human) (UniProt P00441). Kind of assay: NMR titration; 100 uM WT [U-15N]-apo-SOD1^SH in PBS pH 7.4 titrated with unlabelled CCS-D2 up to three equivalents, anaerobic, 298 K, 900 MHz.
Sequence of UniProt P00441 (P00441 whole entry): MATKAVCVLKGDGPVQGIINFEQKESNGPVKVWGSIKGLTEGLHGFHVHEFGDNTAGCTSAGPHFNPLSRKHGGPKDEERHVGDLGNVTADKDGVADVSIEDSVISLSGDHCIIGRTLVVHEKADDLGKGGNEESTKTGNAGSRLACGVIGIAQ

Regarding “CCS-D2, purified from E. coli (domain or fragment)”, the percent of apo-SOD1^SH still free with 1 equivalent of CCS-D2 was 20%.
